The source of these data is PMC8602628, “Phosphorylation activates the yeast small heat shock protein Hsp26 by weakening domain contacts in the oligomer ensemble” (Nature Communications, 2021).

Data set [1] deals with the molecule itself. Kind of data set: CD thermal transition; far-UV CD at 218 nm, 12.5 µM protein in PBS, 20 to 90 °C at 1 K/min; the lower transition is taken as the disassembly of the oligomer.
Data set [2] has as its target Hsp26 FRET complex (5 µM LYI-labeled and 5 µM AIAS-labeled Hsp26 S5C, pre-formed at 40 °C) (S. cerevisiae) (UniProt P15992). The data set is described as follows: FRET or BRET; subunit exchange: unlabeled Hsp26 in 39-fold molar excess added to the pre-formed FRET complex, 40 °C, decrease of acceptor fluorescence at 520 nm for 1500 s, exponential fit, kexchange = 1/t1. A general note: Bioluminescence resonance energy transfer reports proximity on the nanometre scale.

Data set [3] concerns the molecule itself. Kind of data set: cryo-EM structure; 2.0-3.3 mg/ml protein plunge-frozen, Titan Krios 300 kV, K2; 2D class averages (IMAGIC) compared with 40mer reprojections, 3D reconstruction in cryoSPARC.
Data set [4] deals with the molecule itself. Kind of data set: cryo-EM structure; S207E dataset; asymmetric heterogeneous refinement (3D classification) in cryoSPARC into 13 classes; class C13.
Data set [5] deals with the molecule itself. The data set is described as follows: AUC; sedimentation velocity, 23 µM protein, 35,000 rpm (98,500 × g), 20 °C, PBS, absorbance at 280 nm, c(S) distribution in SEDFIT.
Data set [6] concerns the molecule itself. The data set is described as follows: SEC; analytical SEC-HPLC, Superdex200 increase 10/300GL, PBS, 0.5 ml/min, RT, 20 µl of a 20 µM protein solution loaded. A general note: Size exclusion chromatography separates by hydrodynamic size, large species first.
Data set [7] concerns the target T1, authentic Hsp26 from yeast (S. cerevisiae), P15992.
T1 chain: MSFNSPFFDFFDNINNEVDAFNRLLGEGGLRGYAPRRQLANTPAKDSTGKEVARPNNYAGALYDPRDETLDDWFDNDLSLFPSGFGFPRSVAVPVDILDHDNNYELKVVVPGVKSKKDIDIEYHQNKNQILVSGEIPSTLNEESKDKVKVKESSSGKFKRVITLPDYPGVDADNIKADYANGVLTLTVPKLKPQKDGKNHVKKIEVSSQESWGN
Kind of data set: cryo-EM structure; 2.0-3.3 mg/ml protein plunge-frozen, Titan Krios 300 kV, K2; 2D class averages (IMAGIC) compared with 40mer reprojections, 3D reconstruction in cryoSPARC. To be noted: remark: other sources report otherwise.

One may read the stoichiometry N as the number of molecules, sites or subunits per partner or assembly.

B1: Hsp26 wild-type (WT) protein, recombinant (natural protein, S. cerevisiae)
chain: MGSFNSPFFDFFDNINNEVDAFNRLLGEGGLRGYAPRRQLANTPAKDSTGKEVARPNNYAGALYDPRDETLDDWFDNDLSLFPSGFGFPRSVAVPVDILDHDNNYELKVVVPGVKSKKDIDIEYHQNKNQILVSGEIPSTLNEESKDKVKVKESSSGKFKRVITLPDYPGVDADNIKADYANGVLTLTVPKLKPQKDGKNHVKKIEVSSQESWGN
notes: Hsp26, small heat shock protein of S. cerevisiae; HSP26 cloned into pQE60 with NcoI and HindIII, which adds a glycine after the start methionine; Forms an ensemble of oligomers, predominantly a 40mer; also called Hsp26 WT; source: E. coli HB101, purified (Q-Sepharose, Superdex200, Resource Q)
Turning to B1, the “dissociation temperature of the oligomer” value in data set [1] came to 42.1 °C. The same molecule showed an exchange constant in data set [2] of 0.0032 s⁻¹. Further, in data set [3], the “fraction of particles representing 40mer views” value (“fraction” for short) came to 48.9% and the “stoichiometry N” value is 40.

B2: Hsp26 T42E (natural protein, S. cerevisiae)
chain: MGSFNSPFFDFFDNINNEVDAFNRLLGEGGLRGYAPRRQLANEPAKDSTGKEVARPNNYAGALYDPRDETLDDWFDNDLSLFPSGFGFPRSVAVPVDILDHDNNYELKVVVPGVKSKKDIDIEYHQNKNQILVSGEIPSTLNEESKDKVKVKESSSGKFKRVITLPDYPGVDADNIKADYANGVLTLTVPKLKPQKDGKNHVKKIEVSSQESWGN
notes: Hsp26 of S. cerevisiae, phospho-mimetic mutant in pQE60::HSP26; source: E. coli HB101, purified (Q-Sepharose, Superdex200, Resource Q)
Regarding B2, the “dissociation temperature of the oligomer” value in data set [1] was less than 40 °C.

B3: Hsp26 T48E (natural protein, S. cerevisiae)
chain: MGSFNSPFFDFFDNINNEVDAFNRLLGEGGLRGYAPRRQLANTPAKDSEGKEVARPNNYAGALYDPRDETLDDWFDNDLSLFPSGFGFPRSVAVPVDILDHDNNYELKVVVPGVKSKKDIDIEYHQNKNQILVSGEIPSTLNEESKDKVKVKESSSGKFKRVITLPDYPGVDADNIKADYANGVLTLTVPKLKPQKDGKNHVKKIEVSSQESWGN
notes: as for B2
Turning to B3, in data set [1], the “dissociation temperature of the oligomer” value is less than 40 °C.

B4: Hsp26 S207E (natural protein, S. cerevisiae, UniProt P15992 1-214, looked up)
chain: MGSFNSPFFDFFDNINNEVDAFNRLLGEGGLRGYAPRRQLANTPAKDSTGKEVARPNNYAGALYDPRDETLDDWFDNDLSLFPSGFGFPRSVAVPVDILDHDNNYELKVVVPGVKSKKDIDIEYHQNKNQILVSGEIPSTLNEESKDKVKVKESSSGKFKRVITLPDYPGVDADNIKADYANGVLTLTVPKLKPQKDGKNHVKKIEVESQESWGN
notes: an additional glycine stands after the start methionine; phospho-mimetic mutant of the C-terminal region; predominant species a 40mer, one 3D class a 42mer; source: E. coli HB101, purified (Q-Sepharose, Superdex200, Resource Q)
B4: the “stoichiometry N” value in data set [4] stood at 42.

B5: Hsp26 S47E (natural protein, S. cerevisiae)
chain: MGSFNSPFFDFFDNINNEVDAFNRLLGEGGLRGYAPRRQLANTPAKDETGKEVARPNNYAGALYDPRDETLDDWFDNDLSLFPSGFGFPRSVAVPVDILDHDNNYELKVVVPGVKSKKDIDIEYHQNKNQILVSGEIPSTLNEESKDKVKVKESSSGKFKRVITLPDYPGVDADNIKADYANGVLTLTVPKLKPQKDGKNHVKKIEVSSQESWGN
notes: as for B2
For B5, the binding result in data set [5] was “binds”.

B6: Hsp26 T163E (natural protein, S. cerevisiae)
chain: MGSFNSPFFDFFDNINNEVDAFNRLLGEGGLRGYAPRRQLANTPAKDSTGKEVARPNNYAGALYDPRDETLDDWFDNDLSLFPSGFGFPRSVAVPVDILDHDNNYELKVVVPGVKSKKDIDIEYHQNKNQILVSGEIPSTLNEESKDKVKVKESSSGKFKRVIELPDYPGVDADNIKADYANGVLTLTVPKLKPQKDGKNHVKKIEVSSQESWGN
notes: as for B2
For B6, in data set [1], the “dissociation temperature of the oligomer” value turned out to be 34.6 ± 0.9 °C. Also, in data set [2], the exchange constant came to 0.0036 s⁻¹.

B7: Hsp26 S208E/S211E (natural protein, S. cerevisiae)
chain: MGSFNSPFFDFFDNINNEVDAFNRLLGEGGLRGYAPRRQLANTPAKDSTGKEVARPNNYAGALYDPRDETLDDWFDNDLSLFPSGFGFPRSVAVPVDILDHDNNYELKVVVPGVKSKKDIDIEYHQNKNQILVSGEIPSTLNEESKDKVKVKESSSGKFKRVITLPDYPGVDADNIKADYANGVLTLTVPKLKPQKDGKNHVKKIEVSEQEEWGN
notes: Hsp26 of S. cerevisiae, phospho-mimetic double mutant in pQE60::HSP26; also called CTR double mutant; source: E. coli HB101, purified (Q-Sepharose, Superdex200, Resource Q)
As to B7, the “dissociation temperature of the oligomer” value in data set [1] is less than 40 °C. Further, the exchange constant in data set [2] came out at 0.0036 s⁻¹.

B8: Hsp26 S90E (natural protein, S. cerevisiae)
chain: MGSFNSPFFDFFDNINNEVDAFNRLLGEGGLRGYAPRRQLANTPAKDSTGKEVARPNNYAGALYDPRDETLDDWFDNDLSLFPSGFGFPREVAVPVDILDHDNNYELKVVVPGVKSKKDIDIEYHQNKNQILVSGEIPSTLNEESKDKVKVKESSSGKFKRVITLPDYPGVDADNIKADYANGVLTLTVPKLKPQKDGKNHVKKIEVSSQESWGN
notes: as for B2
B8: the “dissociation temperature of the oligomer” value in data set [1] is less than 40 °C. Besides, the exchange constant in data set [2] came out at 0.004 s⁻¹.

B9: Hsp26 S208E (natural protein, S. cerevisiae)
chain: MGSFNSPFFDFFDNINNEVDAFNRLLGEGGLRGYAPRRQLANTPAKDSTGKEVARPNNYAGALYDPRDETLDDWFDNDLSLFPSGFGFPRSVAVPVDILDHDNNYELKVVVPGVKSKKDIDIEYHQNKNQILVSGEIPSTLNEESKDKVKVKESSSGKFKRVITLPDYPGVDADNIKADYANGVLTLTVPKLKPQKDGKNHVKKIEVSEQESWGN
notes: as for B2
As to B9, the “dissociation temperature of the oligomer” value in data set [1] is less than 40 °C.

B10: Hsp26 S211E (natural protein, S. cerevisiae)
chain: MGSFNSPFFDFFDNINNEVDAFNRLLGEGGLRGYAPRRQLANTPAKDSTGKEVARPNNYAGALYDPRDETLDDWFDNDLSLFPSGFGFPRSVAVPVDILDHDNNYELKVVVPGVKSKKDIDIEYHQNKNQILVSGEIPSTLNEESKDKVKVKESSSGKFKRVITLPDYPGVDADNIKADYANGVLTLTVPKLKPQKDGKNHVKKIEVSSQEEWGN
notes: as for B2
As for B10, in data set [6], the binding result is reported as “binds”.

B11: Hsp26 S47E/T48E (natural protein, S. cerevisiae)
chain: MGSFNSPFFDFFDNINNEVDAFNRLLGEGGLRGYAPRRQLANTPAKDEEGKEVARPNNYAGALYDPRDETLDDWFDNDLSLFPSGFGFPRSVAVPVDILDHDNNYELKVVVPGVKSKKDIDIEYHQNKNQILVSGEIPSTLNEESKDKVKVKESSSGKFKRVITLPDYPGVDADNIKADYANGVLTLTVPKLKPQKDGKNHVKKIEVSSQESWGN
notes: Hsp26 of S. cerevisiae, phospho-mimetic double mutant in pQE60::HSP26; source: E. coli HB101, purified (Q-Sepharose, Superdex200, Resource Q)
With B11, in data set [1], the “dissociation temperature of the oligomer” value is 36.8 °C. In addition, the exchange constant in data set [2] is 0.004 s⁻¹. In data set [3], the “fraction” value came to 7.3% and the “stoichiometry N” value turned out to be 40.

B12: Hsp26 S144E (natural protein, S. cerevisiae)
chain: MGSFNSPFFDFFDNINNEVDAFNRLLGEGGLRGYAPRRQLANTPAKDSTGKEVARPNNYAGALYDPRDETLDDWFDNDLSLFPSGFGFPRSVAVPVDILDHDNNYELKVVVPGVKSKKDIDIEYHQNKNQILVSGEIPSTLNEEEKDKVKVKESSSGKFKRVITLPDYPGVDADNIKADYANGVLTLTVPKLKPQKDGKNHVKKIEVSSQESWGN
notes: as for B2
Consider B12, for which the “dissociation temperature of the oligomer” value in data set [1] came out at 35.1 ± 0.1 °C. The exchange constant in data set [2] amounted to 0.0032 s⁻¹.

B13: Hsp26 S207E (natural protein, S. cerevisiae)
chain: MGSFNSPFFDFFDNINNEVDAFNRLLGEGGLRGYAPRRQLANTPAKDSTGKEVARPNNYAGALYDPRDETLDDWFDNDLSLFPSGFGFPRSVAVPVDILDHDNNYELKVVVPGVKSKKDIDIEYHQNKNQILVSGEIPSTLNEESKDKVKVKESSSGKFKRVITLPDYPGVDADNIKADYANGVLTLTVPKLKPQKDGKNHVKKIEVESQESWGN
notes: as for B2
As to B13, in data set [3], the “fraction” value worked out at 34.2% and the “stoichiometry N” value was 40.

B14: authentic Hsp26 from yeast, P15992 1-214 (natural protein)
chain: MSFNSPFFDFFDNINNEVDAFNRLLGEGGLRGYAPRRQLANTPAKDSTGKEVARPNNYAGALYDPRDETLDDWFDNDLSLFPSGFGFPRSVAVPVDILDHDNNYELKVVVPGVKSKKDIDIEYHQNKNQILVSGEIPSTLNEESKDKVKVKESSSGKFKRVITLPDYPGVDADNIKADYANGVLTLTVPKLKPQKDGKNHVKKIEVSSQESWGN
Turning to B14, the stoichiometry N in data set [7] was determined as 40.
